From publication PMC7064771, “Repurposed Drugs That Block the Gonococcus-Complement Receptor 3 Interaction Can Prevent and Cure Gonococcal Infection of Primary Human Cervical Epithelial Cells” (mBio, 2020)

What was measured:
mouse rI-domain = target: T1, mouse rI-domain (Mus musculus, UniProt P05555); assay: Surface plasmon resonance, immobilized mouse rI-domain; conditions: purified pilin 0.125-2 μM; NCDI = no concentration-dependent interaction (no binding of ≤2 μM)
T1 construct: Recombinant human and mouse I-domain proteins were made and purified as previously described; made in house
Description: (§1) SPR analyses were performed using a Biacore S200 system (GE Healthcare Life Sciences, Parramatta, NSW, Australia). Samples were analyzed at 25°C in phosphate-buffered saline (PBS) at a flow rate of 10 μl/min and by using single-cycle kinetics. Human rI-domain, mouse rI-domain, and human rCR3 were immobilized onto separate cells of a Series S CM5 sensor chip using an NHS capture kit (both from GE Healthcare Life Sciences) for purified pilin experiments. For experiments in which pilin-glycan-like structures were examined, human rI-domain and rCR3 were immobilized onto separate cells of a CM5 chip. A blank immobilization was used as a control/reference on all chips. MS11 wild-type and MS11 pglA pilin were serially diluted from 2 μM to 0.125 μM in PBS. Glycans (Dextra Laboratories, Reading, UK) (Table 2), resembling the gonococcal Gal(α1-3)diNAcBac pilin-linked glycan, were serially diluted from 2 μM to 0.0078 μM in PBS. Affinity data points were taken at 15 s after injection to avoid an artefactual signal resulting from bulk transport. SPR sensorgrams were analyzed using Biacore Evaluation software (GE Healthcare Life Sciences).

human rI-domain = target: T2, human rI-domain (Homo sapiens, UniProt P11215); assay: Surface plasmon resonance, immobilized human rI-domain; type: binding; conditions: purified pilin 0.125-2 μM; NCDI = no concentration-dependent interaction (no binding of ≤2 μM); read-out: KD, rI-domain, Human
T2 construct: Recombinant human and mouse I-domain proteins were made and purified as previously described; made in house
Description: as §1

T2 sequence (P11215 150-328 limits assumed): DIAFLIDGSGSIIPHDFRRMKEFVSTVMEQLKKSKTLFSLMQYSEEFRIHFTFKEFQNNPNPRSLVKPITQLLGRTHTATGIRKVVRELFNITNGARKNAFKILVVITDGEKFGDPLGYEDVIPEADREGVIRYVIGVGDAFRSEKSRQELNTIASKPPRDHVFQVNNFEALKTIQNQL
T1 sequence (P05555 164-338): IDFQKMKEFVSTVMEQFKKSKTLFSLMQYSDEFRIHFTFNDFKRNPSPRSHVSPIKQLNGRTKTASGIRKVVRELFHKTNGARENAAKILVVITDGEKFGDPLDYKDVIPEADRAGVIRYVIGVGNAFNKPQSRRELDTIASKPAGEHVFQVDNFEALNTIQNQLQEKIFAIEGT

B1: MS11 wild type: N. gonorrhoeae MS11 pilin modified with the Gal(α1-3)diNAcBac disaccharide glycan (protein, UniProt P02974 8-165, looked up)
Type IV major pilin protein …: FTLIELMIVIAIVGILAAVALPAYQDYTARAQVSEAILLAEGQKSAVTEYYLNHGKWPENNTSAGVASPPSDIKGKYVKEVEVKNGVVTATMLSSGVNNEIKGKKLSLWARRENGSVKWFCGQPVTRTDDDTVADAKDGKEIDTKHLPSTCRDNFDAK
modifications: Gal(α1-3)diNAcBac disaccharide glycan
notes: N. gonorrhoeae MS11 pilin modified with the Gal(α1-3)diNAcBac disaccharide glycan
With B1 the “KD, rI-domain, Mouse” value (mouse rI-domain) was “NCDI” and the Kd (human rI-domain) was 349 ± 45 nM.
